The values that follow come from PMC9365158 (2022).

One experiment has as its target S1-hFc (SARS-CoV-2). Kind of experiment: BLI.
A further experiment addresses RBD-mFc (SARS-CoV-2, UniProt P0DTC2). The experiment is described as follows: BLI.

B1: RBD-1-2G(NCATS-BL8125) (VHH)
VHH: EVQLVESGGGLVQPGGSLRLSCAASGFSSIVYMGWFRQAPGKGRELVAAIDASGSTTNYPDSVEGRFTISRDNAKRMVYLQMNSLRAEDTAVYYCAIAYFTSPEYVVSQGWGQGTQVTVSS
As to B1, the koff came to 0.0002 s⁻¹ with S1-hFc and 0.00024 s⁻¹ with RBD-mFc.
